2 molecules from patent US20090202556A1 (Kyowa Kirin, published 2009) can be followed below.

Test [1] has as its target T1, 6-EL1/4-EL2 (CLDN4-CLDN6 fusion protein: EL1 of CLDN6, EL2 of CLDN4, myc/His at the C-terminal side), … (human).
T1 chain: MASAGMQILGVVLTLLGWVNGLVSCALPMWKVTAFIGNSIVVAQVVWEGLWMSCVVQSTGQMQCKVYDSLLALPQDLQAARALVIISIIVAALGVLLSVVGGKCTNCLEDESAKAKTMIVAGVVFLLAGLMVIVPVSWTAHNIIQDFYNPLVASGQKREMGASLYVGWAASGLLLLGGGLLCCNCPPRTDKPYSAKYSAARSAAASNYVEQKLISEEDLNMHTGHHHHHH
The experiment in a line: FCM on live 6-EL1/4-EL2/CHO cells.

Test [2] deals with T2, CLDN6-myc/His (fusion protein in which myc/His was added to the C-terminal of human CLDN6), expressed in CHO … (human, UniProt P56747 1-220).
T2 chain: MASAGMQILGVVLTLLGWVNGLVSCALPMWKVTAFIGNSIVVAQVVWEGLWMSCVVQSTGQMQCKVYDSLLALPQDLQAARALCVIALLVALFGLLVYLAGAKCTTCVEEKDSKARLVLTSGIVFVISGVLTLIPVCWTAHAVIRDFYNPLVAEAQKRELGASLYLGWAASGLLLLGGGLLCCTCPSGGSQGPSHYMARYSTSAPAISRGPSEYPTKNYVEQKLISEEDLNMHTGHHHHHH
Description: FCM on live CLDN6/CHO cells. Here is the method:
(§1) Each of CLDN3/CHO, CLDN4/CHO, CLDN5/CHO, CLDN6/CHO and CLDN9/CHO was cultured for 3 to 4 days and peeled off using 0.02% EDTA solution (manufactured by Nacalai Tesque), and the recovered cells were washed with PBS and, in order to avoid nonspecific adsorption of antibodies, blocked at ice temperature for 30 minutes. The cells were dispensed at 1 to 5×10⁵ cells/100 μl BSA-PBS into a 96-well U bottom plate and centrifuged (1,500 rpm, 5 minutes), the supernatant was removed and then a mouse anti-serum to be immunized, a culture supernatant of hybridoma KM3900 (8.6 μg/ml), anti-CLDN4 monoclonal antibodies KM3900 and KM3907 diluted to 5 μg/ml and a mouse IgG2a isotype control (manufactured by DAKO) were dispensed as the primary antibodies at 100 μl/well and allowed to react at ice temperature for 60 minutes. After the reaction and then washing with BSA-PBS once, FITC-labeled anti-mouse immunoglobulin G (H+L) (manufactured by DAKO) diluted 50-fold with BSA-PBS was added thereto as the secondary antibody at 100 μl/well and allowed to react at ice temperature for 30 minutes under shading. After washing again once with BSA-PBS and subsequently suspending in PBS, the fluorescent intensity was measured by FCM (manufactured by Beckman Coulter).

In test [3] the target is T3, CLDN3-myc/His (fusion protein in which myc/His was added to the C-terminal of human CLDN3), expressed in CHO … (human, UniProt O15551 1-220).
T3 construct: also called CLDN3-myc/His gene-introduced CHO cell; not shown: C-terminal myc/His tag
T3 sequence: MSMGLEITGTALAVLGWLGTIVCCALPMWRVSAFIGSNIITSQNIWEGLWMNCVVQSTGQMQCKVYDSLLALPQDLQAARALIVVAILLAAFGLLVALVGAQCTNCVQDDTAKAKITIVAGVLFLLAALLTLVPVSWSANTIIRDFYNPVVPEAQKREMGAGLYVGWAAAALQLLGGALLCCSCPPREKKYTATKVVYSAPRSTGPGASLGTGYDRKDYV
The experiment in a line: FCM on live CLDN3/CHO cells. Here is the method: as §1

The target in test [4] is T4, 4-EL1/6-EL2 (CLDN4-CLDN6 fusion protein: EL1 of CLDN4, EL2 of CLDN6, myc/His at the C-terminal side), … (human).
T4 chain: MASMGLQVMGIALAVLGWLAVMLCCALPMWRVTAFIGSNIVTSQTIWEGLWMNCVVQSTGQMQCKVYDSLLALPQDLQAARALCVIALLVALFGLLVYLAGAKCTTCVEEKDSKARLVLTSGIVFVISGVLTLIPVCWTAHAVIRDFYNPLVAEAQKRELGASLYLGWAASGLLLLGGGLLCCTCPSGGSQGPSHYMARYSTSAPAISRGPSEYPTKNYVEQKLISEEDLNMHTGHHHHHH
Description: FCM on live 4-EL1/6-EL2/CHO cells.

Test [5] addresses T5, CLDN5-myc/His (fusion protein in which myc/His was added to the C-terminal of human CLDN5), expressed in CHO … (human, UniProt O00501 1-218).
T5 sequence: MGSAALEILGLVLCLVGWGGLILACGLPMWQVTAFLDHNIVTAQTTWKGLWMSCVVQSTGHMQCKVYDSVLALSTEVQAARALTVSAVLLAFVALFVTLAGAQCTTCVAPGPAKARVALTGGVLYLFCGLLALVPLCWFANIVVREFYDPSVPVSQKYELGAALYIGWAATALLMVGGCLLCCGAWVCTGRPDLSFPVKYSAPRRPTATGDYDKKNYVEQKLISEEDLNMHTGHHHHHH
Description: FCM on live CLDN5/CHO cells. As for the experimental part:
as §1

Test [6] addresses T6, CLDN9-myc/His (fusion protein in which myc/His was added to the C-terminal of human CLDN9), expressed in CHO … (human, UniProt O95484 1-217).
T6 sequence: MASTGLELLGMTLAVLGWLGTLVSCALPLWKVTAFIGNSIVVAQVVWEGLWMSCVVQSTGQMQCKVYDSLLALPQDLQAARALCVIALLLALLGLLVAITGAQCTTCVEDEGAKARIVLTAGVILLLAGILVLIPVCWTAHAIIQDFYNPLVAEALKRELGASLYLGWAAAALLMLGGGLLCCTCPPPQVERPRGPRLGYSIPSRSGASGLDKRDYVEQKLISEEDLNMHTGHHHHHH
The experiment in a line: FCM on live CLDN9/CHO cells. As for the experimental part: as §1

Test [7] deals with T7, CLDN4-myc/His (fusion protein in which myc/His was added to the C-terminal of human CLDN4), expressed in CHO … (human, UniProt O14493 1-209).
T7 construct: On live cells in FCM; as cell extract in Western blotting (denatured) and immunoprecipitation (Triton X-100 lysate); also called CLDN4-myc/His gene-introduced CHO cell
T7 sequence: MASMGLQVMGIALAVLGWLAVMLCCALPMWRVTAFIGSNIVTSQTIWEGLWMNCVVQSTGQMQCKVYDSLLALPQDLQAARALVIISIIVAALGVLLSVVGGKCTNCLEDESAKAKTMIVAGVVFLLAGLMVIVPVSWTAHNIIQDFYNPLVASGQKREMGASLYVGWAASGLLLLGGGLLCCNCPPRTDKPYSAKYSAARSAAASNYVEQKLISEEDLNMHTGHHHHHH
The experiment in a line: FCM on live CLDN4/CHO cells. As for the experimental part: as §1

B1: anti-CLDN4 monoclonal antibody KM3907 produced by hybridoma KM3907 (FERM BP-10885) (antibody, mouse IgG2a, V domains shown)
VH: QVQLQQSGPELVKPGASVKISCKASGYAISTSWMNWVKQRPGKGLEWIGRINPGDGNTNYNGKFMAKATLTADKPSSTAYMQLSSLTSEDSAVYFCTRGDRWSGAMDYWGQGTSVTVSS
VL: GNVLTQSPAIMSASPGEKVTMTCRASSSVSSSYLHWYQQKSGASPKLWIYSTSNLASGVPVRFSGSGSGTSYSLTISSVEAEDAATYYCQQYSGFPLTFGAGTKLELK
As to B1, the binding result in test [1] is given as “no binding”; in test [2] it was “no binding (tested: 5 µg/ml)”; in test [3] it was “binds”; in test [4] it was “binds”; in test [5], “no binding (tested: 5 µg/ml)”; in test [6], “no binding (tested: 5 µg/ml)”. Further, the binding result in test [7] is recorded as “binds”.

B2: anti-CLDN4 monoclonal antibody KM3900 produced by hybridoma KM3900 (FERM BP-10751) (antibody, V domains shown)
VH: EVQLQQSGPELVKPGASVKISCKASGYTFTDYYMNWVKQSHGKSLEWIGDVVPNNGVPTYNQKFKGKATLTVDKSSSTAYMELRSLTSEDSAVYYCARPHYYYAGRSGAMDYWGQGTSVTVSS
VL: QIVLTQSPAIMSASLGERVTMTCTASSTVSSTYLHWYQQKPGSSPKLWIYSTSNLASGVPARFSGSGSGTSYSLTISSMEAEDAATYYCHQYHRSPPTFGGGTKLEIK
notes: Used as hybridoma culture supernatant (8.6 µg/ml) or purified antibody (5 µg/ml); also called anti-CLDN4 mouse antibody KM3900
Consider B2, for which the binding result is listed as “binds” in test [1]; “no binding (tested: 5 µg/ml)” in test [2]; “no binding (tested: 5 µg/ml)” in test [3]; “no binding” in test [4]; “no binding (tested: 5 µg/ml)” in test [5]; “no binding (tested: 5 µg/ml)” in test [6]. Further, in test [7], the binding result is “binds”.
